# Key:
# Details in all cases: glycan lost
# [1] = total lysate western blot
# [2] = cell surface ELISA, HA tag, CHO
# [3] = cell surface biotinylation, western blot
# [4] = calnexin co-immunolabelling intensity correlation (ER retention)
# [5] = cycloheximide chase western; protein remaining
protein,measurement,setting,value
"GIPR (GIP receptor): N62,77Q (protein) parent chain: MTTSPILQLLLRLSLCGLLLQRAETGSKGQTAGELYQRWERYRRECQETLAAAEPPSGLACNGSFDMYVCWDYAAPNATARASCPWYLPWHHHVAAGFVLRQCGSDGQWGLWRDHTQCENPEKNEAFLDQRLILERLQVMYTVGYSLSLATLLLALLILSLFRRLHCTRNYIHINLFTSFMLRAAAILSRDRLLPRPGPYLGDQALALWNQALAACRTAQIVTQYCVGANYTWLLVEGVYLHSLLVLVGGSEEGHFRYYLLLGWGAPALFVIPWVIVRYLYENTQCWERNEVKAIWWIIRTPILMTILINFLIFIRILGILLSKLRTRQMRCRDYRLRLARSTLTLVPLLGVHEVVFAPVTEEQARGALRFAKLGFEIFLSSFQGFLVSVLYCFINKEVQSEIRRGWHHCRLRRSLGEEQRQLPERAFRALPSGSGPGEVPTSRGLSSGTLPGPGNEASRELESYC",expression_or_secretion,[1]; control: wild type GIPR-V5,decreases
same,localisation_or_trafficking,[2]; control: wild type HA-GIPR,abolishes
same,localisation_or_trafficking,[3]; control: wild type GIPR-V5,abolishes
"GLP-1R (GLP1R): N63,82,115Q (protein) parent chain: MAGAPGPLRLALLLLGMVGRAGPRPQGATVSLWETVQKWREYRRQCQRSLTEDPPPATDLFCNRTFDEYACWPDGEPGSFVNVSCPWYLPWASSVPQGHVYRFCTAEGLWLQKDNSSLPWRDLSECEESKRGERSSPEEQLLFLYIIYTVGYALSFSALVIASAILLGFRHLHCTRNYIHLNLFASFILRALSVFIKDAALKWMYSTAAQQHQWDGLLSYQDSLSCRLVFLLMQYCVAANYYWLLVEGVYLYTLLAFSVLSEQWIFRLYVSIGWGVPLLFVVPWGIVKYLYEDEGCWTRNSNMNYWLIIRLPILFAIGVNFLIFVRVICIVVSKLKANLMCKTDIKCRLAKSTLTLIPLLGTHEVIFAFVMDEHARGTLRFIKLFTELSFTSFQGLMVAILYCFVNNEVQLEFRKSWERWRLEHLHIQRDSSMKPLKCPTSSLSSGATAGSSMYTATCQASCS",expression_or_secretion,[1]; control: wild type GLP-1R-V5,decreases
same,localisation_or_trafficking,[2]; control: wild type HA-GLP-1R,decreases
same,localisation_or_trafficking,[3]; control: wild type GLP-1R-V5,decreases
GIPR (GIP receptor): N62Q (protein) parent chain: MTTSPILQLLLRLSLCGLLLQRAETGSKGQTAGELYQRWERYRRECQETLAAAEPPSGLACNGSFDMYVCWDYAAPNATARASCPWYLPWHHHVAAGFVLRQCGSDGQWGLWRDHTQCENPEKNEAFLDQRLILERLQVMYTVGYSLSLATLLLALLILSLFRRLHCTRNYIHINLFTSFMLRAAAILSRDRLLPRPGPYLGDQALALWNQALAACRTAQIVTQYCVGANYTWLLVEGVYLHSLLVLVGGSEEGHFRYYLLLGWGAPALFVIPWVIVRYLYENTQCWERNEVKAIWWIIRTPILMTILINFLIFIRILGILLSKLRTRQMRCRDYRLRLARSTLTLVPLLGVHEVVFAPVTEEQARGALRFAKLGFEIFLSSFQGFLVSVLYCFINKEVQSEIRRGWHHCRLRRSLGEEQRQLPERAFRALPSGSGPGEVPTSRGLSSGTLPGPGNEASRELESYC,localisation_or_trafficking,[2]; control: wild type HA-GIPR,decreases
same,localisation_or_trafficking,[3]; control: wild type GIPR-V5,decreases
"GIPR (GIP receptor): complete glycosylation-deficient mutant (N62,77Q) (protein) parent chain: MTTSPILQLLLRLSLCGLLLQRAETGSKGQTAGELYQRWERYRRECQETLAAAEPPSGLACNGSFDMYVCWDYAAPNATARASCPWYLPWHHHVAAGFVLRQCGSDGQWGLWRDHTQCENPEKNEAFLDQRLILERLQVMYTVGYSLSLATLLLALLILSLFRRLHCTRNYIHINLFTSFMLRAAAILSRDRLLPRPGPYLGDQALALWNQALAACRTAQIVTQYCVGANYTWLLVEGVYLHSLLVLVGGSEEGHFRYYLLLGWGAPALFVIPWVIVRYLYENTQCWERNEVKAIWWIIRTPILMTILINFLIFIRILGILLSKLRTRQMRCRDYRLRLARSTLTLVPLLGVHEVVFAPVTEEQARGALRFAKLGFEIFLSSFQGFLVSVLYCFINKEVQSEIRRGWHHCRLRRSLGEEQRQLPERAFRALPSGSGPGEVPTSRGLSSGTLPGPGNEASRELESYC","localisation_or_trafficking, other: Pearson correlation",[4]; control: wild type GIPR,"increases, about 80% vs almost no correlation"
"GLP-1R (GLP1R): complete glycosylation-deficient mutant (N63,82,115Q) (protein) parent chain: MAGAPGPLRLALLLLGMVGRAGPRPQGATVSLWETVQKWREYRRQCQRSLTEDPPPATDLFCNRTFDEYACWPDGEPGSFVNVSCPWYLPWASSVPQGHVYRFCTAEGLWLQKDNSSLPWRDLSECEESKRGERSSPEEQLLFLYIIYTVGYALSFSALVIASAILLGFRHLHCTRNYIHLNLFASFILRALSVFIKDAALKWMYSTAAQQHQWDGLLSYQDSLSCRLVFLLMQYCVAANYYWLLVEGVYLYTLLAFSVLSEQWIFRLYVSIGWGVPLLFVVPWGIVKYLYEDEGCWTRNSNMNYWLIIRLPILFAIGVNFLIFVRVICIVVSKLKANLMCKTDIKCRLAKSTLTLIPLLGTHEVIFAFVMDEHARGTLRFIKLFTELSFTSFQGLMVAILYCFVNNEVQLEFRKSWERWRLEHLHIQRDSSMKPLKCPTSSLSSGATAGSSMYTATCQASCS","localisation_or_trafficking, other: Pearson correlation",[4]; control: wild type GLP-1R,"increases, just under 50% vs low level of correlation"
"GIPR (GIP receptor): glycosylation deficient GIPR (N62,77Q) (protein) parent chain: MTTSPILQLLLRLSLCGLLLQRAETGSKGQTAGELYQRWERYRRECQETLAAAEPPSGLACNGSFDMYVCWDYAAPNATARASCPWYLPWHHHVAAGFVLRQCGSDGQWGLWRDHTQCENPEKNEAFLDQRLILERLQVMYTVGYSLSLATLLLALLILSLFRRLHCTRNYIHINLFTSFMLRAAAILSRDRLLPRPGPYLGDQALALWNQALAACRTAQIVTQYCVGANYTWLLVEGVYLHSLLVLVGGSEEGHFRYYLLLGWGAPALFVIPWVIVRYLYENTQCWERNEVKAIWWIIRTPILMTILINFLIFIRILGILLSKLRTRQMRCRDYRLRLARSTLTLVPLLGVHEVVFAPVTEEQARGALRFAKLGFEIFLSSFQGFLVSVLYCFINKEVQSEIRRGWHHCRLRRSLGEEQRQLPERAFRALPSGSGPGEVPTSRGLSSGTLPGPGNEASRELESYC",degradation_or_half_life,[5]; control: wild type GIPR-V5,decreases
"GLP-1R (GLP1R): glycosylation deficient GLP-1R (N63,82,115Q) (protein) parent chain: MAGAPGPLRLALLLLGMVGRAGPRPQGATVSLWETVQKWREYRRQCQRSLTEDPPPATDLFCNRTFDEYACWPDGEPGSFVNVSCPWYLPWASSVPQGHVYRFCTAEGLWLQKDNSSLPWRDLSECEESKRGERSSPEEQLLFLYIIYTVGYALSFSALVIASAILLGFRHLHCTRNYIHLNLFASFILRALSVFIKDAALKWMYSTAAQQHQWDGLLSYQDSLSCRLVFLLMQYCVAANYYWLLVEGVYLYTLLAFSVLSEQWIFRLYVSIGWGVPLLFVVPWGIVKYLYEDEGCWTRNSNMNYWLIIRLPILFAIGVNFLIFVRVICIVVSKLKANLMCKTDIKCRLAKSTLTLIPLLGTHEVIFAFVMDEHARGTLRFIKLFTELSFTSFQGLMVAILYCFVNNEVQLEFRKSWERWRLEHLHIQRDSSMKPLKCPTSSLSSGATAGSSMYTATCQASCS",degradation_or_half_life,[5]; control: wild type GLP-1R-V5,decreases
GIPR (GIP receptor): N77Q (protein) parent chain: MTTSPILQLLLRLSLCGLLLQRAETGSKGQTAGELYQRWERYRRECQETLAAAEPPSGLACNGSFDMYVCWDYAAPNATARASCPWYLPWHHHVAAGFVLRQCGSDGQWGLWRDHTQCENPEKNEAFLDQRLILERLQVMYTVGYSLSLATLLLALLILSLFRRLHCTRNYIHINLFTSFMLRAAAILSRDRLLPRPGPYLGDQALALWNQALAACRTAQIVTQYCVGANYTWLLVEGVYLHSLLVLVGGSEEGHFRYYLLLGWGAPALFVIPWVIVRYLYENTQCWERNEVKAIWWIIRTPILMTILINFLIFIRILGILLSKLRTRQMRCRDYRLRLARSTLTLVPLLGVHEVVFAPVTEEQARGALRFAKLGFEIFLSSFQGFLVSVLYCFINKEVQSEIRRGWHHCRLRRSLGEEQRQLPERAFRALPSGSGPGEVPTSRGLSSGTLPGPGNEASRELESYC,localisation_or_trafficking,[2]; control: wild type HA-GIPR,decreases
same,localisation_or_trafficking,[3]; control: wild type GIPR-V5,decreases
GLP-1R (GLP1R): N63Q (protein) parent chain: MAGAPGPLRLALLLLGMVGRAGPRPQGATVSLWETVQKWREYRRQCQRSLTEDPPPATDLFCNRTFDEYACWPDGEPGSFVNVSCPWYLPWASSVPQGHVYRFCTAEGLWLQKDNSSLPWRDLSECEESKRGERSSPEEQLLFLYIIYTVGYALSFSALVIASAILLGFRHLHCTRNYIHLNLFASFILRALSVFIKDAALKWMYSTAAQQHQWDGLLSYQDSLSCRLVFLLMQYCVAANYYWLLVEGVYLYTLLAFSVLSEQWIFRLYVSIGWGVPLLFVVPWGIVKYLYEDEGCWTRNSNMNYWLIIRLPILFAIGVNFLIFVRVICIVVSKLKANLMCKTDIKCRLAKSTLTLIPLLGTHEVIFAFVMDEHARGTLRFIKLFTELSFTSFQGLMVAILYCFVNNEVQLEFRKSWERWRLEHLHIQRDSSMKPLKCPTSSLSSGATAGSSMYTATCQASCS,localisation_or_trafficking,[2]; control: wild type HA-GLP-1R,no change
GLP-1R (GLP1R): N82Q (protein) parent chain: MAGAPGPLRLALLLLGMVGRAGPRPQGATVSLWETVQKWREYRRQCQRSLTEDPPPATDLFCNRTFDEYACWPDGEPGSFVNVSCPWYLPWASSVPQGHVYRFCTAEGLWLQKDNSSLPWRDLSECEESKRGERSSPEEQLLFLYIIYTVGYALSFSALVIASAILLGFRHLHCTRNYIHLNLFASFILRALSVFIKDAALKWMYSTAAQQHQWDGLLSYQDSLSCRLVFLLMQYCVAANYYWLLVEGVYLYTLLAFSVLSEQWIFRLYVSIGWGVPLLFVVPWGIVKYLYEDEGCWTRNSNMNYWLIIRLPILFAIGVNFLIFVRVICIVVSKLKANLMCKTDIKCRLAKSTLTLIPLLGTHEVIFAFVMDEHARGTLRFIKLFTELSFTSFQGLMVAILYCFVNNEVQLEFRKSWERWRLEHLHIQRDSSMKPLKCPTSSLSSGATAGSSMYTATCQASCS,localisation_or_trafficking,[2]; control: wild type HA-GLP-1R,no change
GLP-1R (GLP1R): N115Q (protein) parent chain: MAGAPGPLRLALLLLGMVGRAGPRPQGATVSLWETVQKWREYRRQCQRSLTEDPPPATDLFCNRTFDEYACWPDGEPGSFVNVSCPWYLPWASSVPQGHVYRFCTAEGLWLQKDNSSLPWRDLSECEESKRGERSSPEEQLLFLYIIYTVGYALSFSALVIASAILLGFRHLHCTRNYIHLNLFASFILRALSVFIKDAALKWMYSTAAQQHQWDGLLSYQDSLSCRLVFLLMQYCVAANYYWLLVEGVYLYTLLAFSVLSEQWIFRLYVSIGWGVPLLFVVPWGIVKYLYEDEGCWTRNSNMNYWLIIRLPILFAIGVNFLIFVRVICIVVSKLKANLMCKTDIKCRLAKSTLTLIPLLGTHEVIFAFVMDEHARGTLRFIKLFTELSFTSFQGLMVAILYCFVNNEVQLEFRKSWERWRLEHLHIQRDSSMKPLKCPTSSLSSGATAGSSMYTATCQASCS,localisation_or_trafficking,[2]; control: wild type HA-GLP-1R,no change
